Laboratory results from patent US10471162B2, “Collagen targeted imaging probes” (priority 2014, dated 2019).

Assays:
in vivo = assay: in vivo; set-up: species or system mouse; details: male, C57Bl/6, mouse, iv, total radioactivity, Biodistribution % ID/g
Protocol: (§1) Adult male C57Bl/6 mice were administered a single intratracheal dose of low dose bleomycin at 0.1 U/kg (low dose), in a total volume of 50 μl sterile saline. FTY720 was administered intraperitoneally to the mice at 1 mg/kg three times a week. Animals were placed in a small-animal PET/SPECT/CT scanner (Triumph; TriFoil Imaging), equipped with inhalation anesthesia and heating pad. Each animal was anesthetized with isoflurane (4% for induction, 2-2.5% for maintenance in medical air) and body temperature was kept at 37-38° C. using a heating pad. The femoral vein was cannulated for intravenous delivery of the PET agent. Each mouse was injected with approximately 0.1 mL and 20-50 μCi of ^64Cu-CBP(n), 0.1 mL and 20-50 μCi of ^68Ga-CBP(n) and 0.1 mL and 10-20 μCi of Al^18F-CBP(n) in a 18 mM solution of sucrose in water, followed by saline flush. […] The lungs, blood, urine, heart, liver, left rectus femoris muscle, spleen, small intestine, kidneys, left femur bone were collected from all animals. The tissues were weighed, and radioactivity in each tissue was measured on a gamma counter (CobraII Auto gamma; Packard). The radioactivity in the lung was reported as percent injected dose per gram corrected with the average sham weight, which was calculated by dividing the counts of ^64Cu per average sham tissue weight in gram by the total of counts of the injected dose. The radioactivity in every other tissue was reported as percent injected dose per gram (% ID/g), which was calculated by dividing the counts of ^64Cu per gram of tissue by the total of counts of the injected dose. A p-value of less than 0.05 was considered significant. Uncertainties are expressed as the standard error of the mean.

[1] = test system: pulmonary fibrosis, C57Bl/6 mice (low dose bleomycin, FTY720); assay: in vivo; set-up: species or system mouse
Protocol: as §1

[2] = male, C57Bl/6, mouse, iv, 2.5 h

Compound: CC(C)C[C@H](NC(=O)[C@@H]1CSSC[C@H](NC(=O)[C@H](Cc2c[nH]cn2)NC(=O)[C@H](Cc2c[nH]c3ccccc23)NC(=O)[C@H](CCCCNC(=O)CNC(=O)CCC(C(=O)O)N2CCN(CC(=O)O)CCN(CC(=O)O)CC2)NC(=O)CNC(=O)CCC(C(=O)O)N2CCN(CC(=O)O)CCN(CC(=O)O)CC2)C(=O)N[C@@H]([C@@H](C)O)C(=O)N[C@@H]([C@@H](C)O)C(=O)N[C@@H](CCCCNC(=O)CCC(C(=O)O)N2CCN(CC(=O)O)CCN(CC(=O)O)CC2)C(=O)N[C@@H](Cc2ccccc2)C(=O)N2CCC[C@H]2C(=O)N[C@@H](Cc2c[nH]cn2)C(=O)N[C@@H](Cc2c[nH]cn2)C(=O)N[C@@H](Cc2ccc(O)cc2)C(=O)N1)C(=O)N[C@@H](Cc1ccc(O)cc1)C(=O)N[C@@H](Cc1ccc(-c2ccccc2)cc1)C(N)=O (single isomer, unassigned) [CBP8]
- tissue uptake at 2.5 h (in vivo; blood): 0.347 ± 0.017 %ID/g
- tissue uptake at 2.5 h (in vivo; heart): 0.293 ± 0.024 %ID/g
- tissue uptake at 2.5 h (in vivo; kidney): 42.7 ± 1.42 %ID/g
- tissue uptake at 2.5 h (in vivo; liver): 1.44 ± 0.108 %ID/g
- tissue uptake at 2.5 h (in vivo; small intest.): 0.477 ± 0.052 %ID/g
- tissue uptake at 2.5 h (in vivo; spleen): 0.47 ± 0.045 %ID/g
- Biodistribution % ID/g, blood [1, 2]: 0.523 ± 0.062 % ID/g
- Biodistribution % ID/g, heart [1, 2]: 0.340 ± 0.038 % ID/g
- Biodistribution % ID/g, kidney [1, 2]: 50.36 ± 2.756 % ID/g
- Biodistribution % ID/g, liver [1, 2]: 1.998 ± 0.117 % ID/g
- Biodistribution % ID/g, small intest. [1, 2]: 0.690 ± 0.064 % ID/g
- Biodistribution % ID/g, spleen [1, 2]: 0.925 ± 0.126 % ID/g
- organ uptake between groups, except lungs, in words ([1]; mouse): not significantly different
